Test results reported in publication PMC6291300.
Read-outs that look alike come from different tables or passages of the source.

B1: Rat FcRn extracellular domain (α-chain with β2-microglobulin) (complex)
chain 1: AEPRLPLMYHLAAVSDLSTGLPSFWATGWLGAQQYLTYNNLRQEADPCGAWIWENQVSWYWEKETTDLKSKEQLFLEAIRTLENQINGTFTLQGLLGCELAPDNSSLPTAVFALNGEEFMRFNPRTGNWSGEWPETDIVGNLWMKQPEAARKESEFLLTSCPERLLGHLERGRQNLEWKEPPSMRLKARPGNSGSSVLTCAAFSFYPPELKFRFLRNGLASGSGNCSTGPNGDGSFHAWSLLEVKRGDEHHYQCQVEHEGLAQPLTVDLDSPARSS
chain 2: IQKTPQIQVYSRHPPENGKPNFLNCYVSQFHPPQIEIELLKNGKKIPNIEMSDLSFSKDWSFYILAHTEFTPTETDVYACRVKHVTLKEPKTVTWDRDM

Experiments:
[1] = target: Human FcRn (α-chain and β2m) on stably transfected MDCK cells (human) (UniProt P55899); assay: flow cytometry on cells
[2] = target: Human FcRn (α-chain and β2m) on stably transfected MDCK cells (human) (UniProt P55899); assay: flow cytometry on cells; remark: listed apart in the source
[3] = target: Rozanolixizumab (1519.g57 IgG4P); assay: SPR
[4] = target: Rozanolixizumab (1519.g57 IgG4P); assay: SPR; remark: listed apart in the source
[5] = target: Cynomolgus monkey FcRn (α-chain and β2m) on stably transfected MDCK cells (cynomolgus monkey) (UniProt Q8SPV9); assay: flow cytometry on cells
[6] = target: Rozanolixizumab (1519.g57 IgG4P); assay: SPR; remark: listed apart in the source

Chain of UniProt Q8SPV9 (Q8SPV9 24-365, chain 1 of 2): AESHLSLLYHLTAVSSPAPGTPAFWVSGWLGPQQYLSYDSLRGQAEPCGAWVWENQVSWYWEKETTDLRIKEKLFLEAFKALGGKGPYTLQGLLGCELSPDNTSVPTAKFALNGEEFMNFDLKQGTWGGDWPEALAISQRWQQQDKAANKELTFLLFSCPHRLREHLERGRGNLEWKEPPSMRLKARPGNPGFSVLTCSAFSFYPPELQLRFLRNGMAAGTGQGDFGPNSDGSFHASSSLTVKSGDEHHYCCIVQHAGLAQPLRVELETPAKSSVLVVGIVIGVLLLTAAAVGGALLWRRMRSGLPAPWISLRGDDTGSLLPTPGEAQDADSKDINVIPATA
Chain of UniProt Q8SPV9 (Q8SPW0 21-119, chain 2 of 2, further chain): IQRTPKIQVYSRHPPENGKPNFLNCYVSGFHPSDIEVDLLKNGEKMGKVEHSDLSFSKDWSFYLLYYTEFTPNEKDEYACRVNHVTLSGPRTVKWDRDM

| Molecule | Kd [1] [nM] | Kd [2] [nM] | other results |
| --- | --- | --- | --- |
| 1519.g57 Fab’ | 0.44 | 0.42 |  |
| Human FcRn extracellular domain (α-chain with β2-microglobulin) (from UniProt P55899 24-297; P61769 21-119) (complex) |  |  | Kd [3]: 0.034 nM; Kd [4]: < 0.023 nM |
| Rozanolixizumab (1519.g57 IgG4P) (antibody) | 0.37 | 0.43 | Kd [5]: 1 nM |
| B1 |  |  | Kd [6]: 99 nM |
